Source: the supplement of paper PMC12764529
± gives the half width of the 95% confidence interval.

Legend:
[1] = folding stability dG unfold from chymotrypsin proteolysis; higher = more stable
How it was run: (§1)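 Sequencing followed digestion of designed mini-proteins with trypsin and chymotrypsin, each at 11 concentrations in threefold dilutions together with a no-protease condition. The mini-proteins were under 80 residues, had no cysteine, sat in a PA-tagged cDNA display construct, and were kept only if AlphaFold2 dimer inter-PAE was above 15. From the counts, Bayesian fitting gave K50, and unfolding free energy was derived against a sequence-predicted unfolded-state K50 and a shared folded-state K50, per protease or combined.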

[2] = folding stability dG unfold (combined trypsin and chymotrypsin); higher = more stable
How it was run: as §1

[3] = folding stability dG unfold from trypsin proteolysis; higher = more stable
How it was run: as §1

Row | Sequence | folding stability dG unfold [1] | folding stability dG unfold [2] | folding stability dG unfold [3]
1 | SAGGDGPPKFEPISIPIGDGVIKIWRSPNGSIHLEIMPPGGKPVASKEYPFPDGRKLKLDIQVKPPEDSAGG [r13_584_TrROS] | 0.252 ± 0.18 kcal/mol | 0.466 ± 0.14 kcal/mol | 0.394 ± 0.13 kcal/mol
2 | SAGGSAEQTATIESVEYNEETGELTIRIRLENGEEVEITVKPDGTITITLPPGAKITEIEIERLPPSAGGSA [r15_959_TrROS_Hall] | 2.3 ± 0.32 kcal/mol | 2.53 ± 0.35 kcal/mol | 1.91 ± 0.15 kcal/mol
3 | SAGITIRLPGAEIEVQRYPHPGNGMPMYRVTVELENPEGKKPKVDVIFPPNQPPGQVENVARYIAKELKSAG [r5_704_TrROS] | -0.302 ± 0.28 kcal/mol | 0.472 ± 0.16 kcal/mol | 0.858 ± 0.13 kcal/mol
4 | SAGGSAGGSDMVLVTAPVDIPPNVKVEIKLKDGYETVSYDPESGRLVILVPANKLDEVLEAIKSAGGSAGGS [r12_476_TrMRF] | 2.01 ± 0.087 kcal/mol | 1.65 ± 0.075 kcal/mol | 0.996 ± 0.026 kcal/mol
5 | SAGGSAGGSAGGGMMLAEFLKYDPRNPTATVVSVRTFSDPEEARAEAEKRGLLVRVIEPSAGGSAGGSAGGS [r10_657_JUSTAS] | 0.0192 ± 0.16 kcal/mol | -0.111 ± 0.1 kcal/mol | -0.45 ± 0.28 kcal/mol
6 | SAGGSAGGSAGKLPEGMKMEVRPKTIFNEDGYMIKITIIRAPDPNILAINIEIIPPGDPISAGGSAGGSAGG [r11_338_TrROS] | 1.89 ± 0.14 kcal/mol | 2.14 ± 0.24 kcal/mol | 2.04 ± 0.12 kcal/mol
7 | SAGGSAGGMVIKIITNAPSLEEAEEIAKRVAAELRERFGGPDVEIVLDVEVIPLPPVPTEDGKPSAGGSAGG [r6_182_TrMRF] | 1.97 ± 0.16 kcal/mol | 1.82 ± 0.092 kcal/mol | 1.38 ± 0.053 kcal/mol
8 | SAGGGPAAEVARLLREAGYDVEVEVEVFSREENPPLLPGEPLVVRVRVYATPPTGPRRPLGEFVVPVGSAGG [r13_874_TrMRF] | 2.49 ± 0.029 kcal/mol | 2.17 ± 0.06 kcal/mol | 1.47 ± 0.035 kcal/mol
9 | SAGGSAGGEYELLTFTLEFEVPPEVEHVEFEAELEDFDEILEVRARPDPETGTVRVEIVARARPSAGGSAGG [r6_712_TrMRF] | 2.62 ± 0.06 kcal/mol | 2.28 ± 0.19 kcal/mol | 1.46 ± 0.044 kcal/mol
10 | SAGGDSVYIPGSISEAIDALRENPNKTVHIMSPDGYYIKITVKWDGDGDYKIDIKWQPPPPPPDPEDKSAGG [r13_56_TrROS] | 2.3 ± 0.21 kcal/mol | 2.23 ± 0.39 kcal/mol | 2.23 ± 0.33 kcal/mol
11 | SAGGMKIKTKSGKELTLKKIKLKYKNKEYEIENLKIKAIKYDPKKKIVHIEVTHPNGKKYTFDLKIKSAGGS [r8_215_TrMRF] | 3.49 ± 0.086 kcal/mol | 2.8 ± 0.21 kcal/mol | 1.69 ± 0.052 kcal/mol
12 | SAGGEELIKELLDKLPPDVKEATIEIEVDGKKVTLTVNEDGEVTLEVIDPETKEKKTFKIKNGKIEPVSAGG [r13_803_TrROS_Hall] | 3.19 ± 0.079 kcal/mol | 2.97 ± 0.28 kcal/mol | 2.46 ± 0.28 kcal/mol
13 | SAGGEVKVVKAEVTTLPDGRKLVRLLLEVGGKFYPVLIDVHPDGVRITFPDGKTATIKLEDLKNLTWSAGGS [r16_593_TrMRF] | 1.73 ± 0.14 kcal/mol | 2.15 ± 0.12 kcal/mol | 2.64 ± 0.094 kcal/mol
14 | SAGGSAGGSAGGMIAVLTYKDGTVRDFGPTASLEEILSIPADEIVRIEVRPVLPELGDLLSAGGSAGGSAGG [r7_190_TrMRF] | -0.859 ± 0.31 kcal/mol | 0.251 ± 0.07 kcal/mol | 0.59 ± 0.018 kcal/mol
15 | SAGIKIKDISRDPNGYVEVTIVYPPGKSIKEIIELIRKLFGFKIEKVEIYPSPNGVYITYRFRIPEGAISAG [r5_774_TrROS] | 4.47 ± 0.058 kcal/mol | 4.13 ± 0.12 kcal/mol | 3.15 ± 0.11 kcal/mol
16 | SAGGPMKVKVTLIVRDKETGEWKEVEREMTLDELRELLASLPPDAEVFVKIEVDGKTVTLSLEELKALSAGG [r13_254_TrROS_Hall] | 4.32 ± 0.097 kcal/mol | 4.29 ± 0.12 kcal/mol | 3.84 ± 0.17 kcal/mol
17 | SAGGSMTEEERRALAEEIAKEVAEKISEEEGIPVKEILSIEVHPDGSVTITIKFPGTEGERTITIPRSAGGS [r16_622_JUSTAS] | 2.38 ± 0.17 kcal/mol | 2.27 ± 0.19 kcal/mol | 1.96 ± 0.067 kcal/mol
18 | SAGGPEELAERIAEFARENGYEVDVLSVEELPGDFVRIHMRIRGLSEDEPVFERDAVLVFPPLPGERSAGGS [r8_102_TrMRF] | 3.439 ± 0.02 kcal/mol | 3 ± 0.052 kcal/mol | 1.45 ± 0.025 kcal/mol
19 | SAGGMKKTVTITITEELPTETGEYKTKTVTTTLTVTPPPPEVTEEEKLREKALKENPNVSPDDPKALLSAGG [r13_136_JUSTAS] | 0.535 ± 0.11 kcal/mol | 0.153 ± 0.14 kcal/mol | -0.948 ± 0.6 kcal/mol
20 | SAGGSAGGSAGGKVEEVEKLAEELEKELGVDIGEVEVLDHPDKFRYRIRIPDLDLDLEFSAGGSAGGSAGGS [r10_161_TrMRF] | -0.0226 ± 0.17 kcal/mol | -0.103 ± 0.11 kcal/mol | -0.529 ± 0.18 kcal/mol
21 | SAGGSAGGSSVEYTFLSKNPEEAKKKFEEKIKEIEEKGEGKIEKAEFTIVSPDNPEYLKLISSSAGGSAGGS [r12_551_JUSTAS] | 0.136 ± 0.26 kcal/mol | 0.259 ± 0.13 kcal/mol | 0.213 ± 0.05 kcal/mol
